Test results reported in patent US7615610B2, “Modified trafficking patterns for arrestin and G-protein-coupled receptors via arrestin-ubiquitin chimera” (Duke University, priority 2003, dated 2009).

How the values were obtained:
[1] = target: T1, β2AR (Homo sapiens, UniProt P07550); test: Coimmunoprecipitation of YFP-β-arrestins with Flag-β2AR in COS-7 cells; assay type: binding; design: expressed in transfected cells; conditions: Flag-β2AR IP, 15 minutes of agonist treatment
Description: A) Stability of the ubiquitin chimera in COS-7 cells. […] The bands on the autorad were quantitated using Fluorimager and graphically represented in the figure. The zero time point represents 100% protein. The graph is an average of three independent experiments. B) Interaction of β-arrestin2-Ub chimera with β2AR. […] After stimulation or not the receptor was immunoprecipitated with anti-Flag beads in the absence (left panels) or presence (right panels) of the inhibitor NEM; the IP was blotted for YFP-β-arrestins with a monoclonal antibody to GFP (top panel). […] The blots are representative of similar blots from three independent experiments.
Immunoprecipitation and Irnmunoblofting—To detect ubiquitinated β-arrestin2, β-arrestin2 with a C-terminal Flag epitope was transiently transfected into COS-7 cells. Cells were serum starved for at least 2 hrs and then stimulated or not for the stipulated times with the appropriate agonists. Cells were solubilized in a lysis buffer (LB) containing 50 mM Hepes (pH7.5), 0.5% NP40, 250 mM NaCl, 2 mM EDTA, 10% (vlv) glycerol, 1 mM sodium orthovanadate, 1 mM sodium fluoride, 1 mM phenylmethylsulfonyl fluoride, leupeptin (5 μg/ml) aprotinin (5 μg/ml), pepstatin A (1 μg/ml) benzaminidine (100 μM) 2 μM MG132 and 10 mM NEM. Soluble extracts were mixed with FLAG M2 affinity beads and rotated at 4° C. overnight. […]

[2] = target: T1, β2AR; test: Confocal microscopy of arrestin trafficking with β2AR in HEK-293 cells; assay type: cell-based; design: expressed in transfected cells; host or cells: HEK-293; conditions: for colocalization with internalized β2AR in endocytic vesicles: fixed HEK-293 cells, HA-β2AR, 15 min isoproterenol; for distribution of YFP fluorescence after isoproterenol: live HEK293 cells over expressing β2AR, 10 μM isoproterenol, 15-30 min
Procedure: Cells were starved for one hour in serum free media. […] Shown are representative confocal images of YFP-fluorescence followed in the same HEK-293 cells treated for 2, 15 and 30 min at 37° C.
HEK-293 cells were transiently transfected with HA-β2AR and YFP-βarrestin2 (A) or YFP-β-arrestin2-Ub (B). After isoproterenol treatment or not the cells were fixed, permeabilized and stained for receptor with the primary antibody 12CA5 and secondary antibody anti mouse IgG conjugated to Texas Red. Shown are confocal images where receptor is visualized in the Red channels and β-arrestin in the green channels. Colocalization of two proteins is seen as yellow in the overlay. The results are representative of three independent experiments.
HEK-293 cells on 10 cm dishes were transiently transfected with HA-β2AR, HA-V2R, HAβ2ARV2CT, or HAV2Rβ2CT, along with β-arr2-GFP, or YFP-βarrestin2, or YFP-β-arrestin2-Ub. Twenty-four hours post-transfection cells were plated on collagen-coated 35 mm glass bottom plates. Cells were starved for at least 2 hrs in serum free medium prior to stimulation. After stimulation cells were fixed with 4% paraformaldehyde. For visualizing HA-tagged receptors, fixed cells were permeabilized with 0.01% Triton in PBS containing 2% BSA for 20 min and incubated at room temperature with 12CA5 antibody at 1:500 dilution. The secondary antibody, antimouse IgG conjugated to TexasRed, followed this. Antibody incubations were done for one hour followed by repeated washes using PBS. Cells expressing low and equivalent levels of the fluorescent proteins were carefully selected to examine YFP-β-arrestins. Confocal images were obtained on Zeiss LSM510 laser scanning microscope using dual excitation (488, 568 nm) and emission (515-540 nm GFP, YFP; 590-610 nm, Texas red) filter sets. Live images were acquired using a heated (37° C.) microscope stage and collected sequentially using single line excitation (488 nm).

[3] = target: T2, V2Rβ2CT (Homo sapiens, UniProt P07550+P30518); test: Confocal microscopy of arrestin trafficking with V2Rβ2CT in HEK-293 cells; assay type: cell-based; conditions: live HEK-293 cells expressing V2Rβ2CT, 15 min and longer
T2 construct: the first 342 amino acids of the V2R (Met1-Cys342); the last 72 amino acids of the β2AR (Leu342 to Leu 413); expressed in transfected cells; host or cells: HEK-293
Procedure: Twenty-four hours post-transfection cells were plated on collagen-coated 35 mm glass bottom plates. Cells were starved for at least 2 hrs in serum free medium prior to stimulation. After stimulation cells were fixed with 4% paraformaldehyde. For visualizing HA-tagged receptors, fixed cells were permeabilized with 0.01% Triton in PBS containing 2% BSA for 20 min and incubated at room temperature with 12CA5 antibody at 1:500 dilution. The secondary antibody, antimouse IgG conjugated to TexasRed, followed this. Antibody incubations were done for one hour followed by repeated washes using PBS. Cells expressing low and equivalent levels of the fluorescent proteins were carefully selected to examine YFP-β-arrestins. […] Live images were acquired using a heated (37° C.) microscope stage and collected sequentially using single line excitation (488 nm).

[4] = target: T1, β2AR; test: Receptor internalization (loss of cell surface receptors, flow cytometry), β2AR
[5] = target: T1, β2AR

| Molecule | receptor-bound (coimmunoprecipitated) arrestin bands [1] | colocalization with internalized β2AR in endocytic vesicles [2] | distribution of YFP fluorescence after isoproterenol [2] | distribution of YFP fluorescence after AVP [3] | reduction of internalization ([4]; pretreatment of cells with 200 μM MDC, data not shown) [%] | increase in amount of β2AR degradation [5] | β2AR internalization ([4]; HEK293 cells, arrestin overexpressed with Flag-β2AR, 10 μM isoproterenol 30 min, mean±SEM) [%] |
| --- | --- | --- | --- | --- | --- | --- | --- |
| YFP-β-arrestin2: wild type β-arrestin2 tagged with YFP, comparator | not detectable | did not however contain any YFP-β-arrestin2 | unaltered at 30 min of isoproterenol treatment | – | – | – | – |
| YFP-β-arrestin2-Ub: YFP-labelled β-arrestin2-ubiquitin chimera from pEYFPC1 (SEQ ID NOS:1-2) | detectable with the chimeric protein | colocalize with the internalized β2AR | redistribute from the plasma membrane to endocytic vesicles | moved into endocytic vesicles as early as 15 min | – | – | – |
| CN(C)c1cccc2c(S(=O)(=O)NCCCCCN)cccc12 [MDC, monodansylcadaverine] | – | – | – | – | 45 | – | – |
| β-arrestin2: wild type β-arrestin2 overexpressed as comparator | – | – | – | – | – | 6-7% | 33±1.6 |
